According to paper PMC7783346:
Values joined by “and” are separate entries in the source; they are usually repeats but may differ in a detail not shown here. Equal entries are not always repeated.

Experiments:
[1] = biological target: KorB of plasmid RA3 fused to a CyaA fragment (BACTH) (plasmid RA3 (IncU), isolated from Aeromonas spp.); experiment: two-hybrid; bacterial adenylate cyclase two-hybrid (BACTH) in E. coli BTH101 cyaA; CyaA T18 and T25 fusions; MacConkey plates with 1% maltose and β-galactosidase assays in liquid cultures
[2] = biological target: IncC of plasmid RA3 fused to CyaA T25 (BACTH) (plasmid RA3 (IncU), isolated from Aeromonas spp.); experiment: as above
[3] = biological target: KfrA of plasmid RA3, intact, fused to a CyaA fragment (BACTH) (plasmid RA3 (IncU), isolated from Aeromonas spp.); experiment: as above
[4] = biological target: His6-KfrCRA3 labelled with RED-Tris-NTA (plasmid RA3 (IncU), isolated from Aeromonas spp.); experiment: MST; labelled His6-KfrC constant at 50 nM, KfrA from 500 nM to 0.0153 nM; 50 mM KPi pH 7.4, 300 mM NaCl, 0.05% Tween 20; measured at 37°C on Monolith NT.115; four independent experiments
[5] = tested on: His6-KfrA178-355 (plasmid RA3 (IncU; Aeromonas hydrophila in Fig S1/S3)); experiment: EMSA; settings: EMSA: 50 mM Tris-HCl pH 8.0, 10 mM MgCl2, 50 mM NaCl, 37 C, 30 min, 10 nM EcoRI-NdeI-digested plasmid DNA (vector fragment as internal competitor), 20 ul …
[6] = tested on: His6-KfrA WT (plasmid RA3 (IncU; Aeromonas hydrophila in Fig S1/S3)); experiment: EMSA; settings: EMSA: 50 mM Tris-HCl pH 8.0, 10 mM MgCl2, 50 mM NaCl, 37 C, 30 min, 10 nM EcoRI-NdeI-digested plasmid DNA (vector fragment as internal competitor), 20 ul …

“KfrA of plasmid RA3, intact, fused to a CyaA fragment (BACTH) (natural protein)” was tested, and the β-galactosidase activity [1] was 1970 U, the β-galactosidase activity [2] was 136 U and the β-galactosidase activity [3] was 4880 U and 5170 U.
Substance “KfrARA3 with the His6 tag removed (natural protein)” has a Kd [4] of 54 nM.
Work on “KfrC of plasmid RA3, intact, fused to a CyaA fragment (BACTH) (natural protein)” yielded a β-galactosidase activity [1] of 1010 U.
With “WT OK (kfrAp), EcoRI-NdeI fragment of pESB2.68” the K half [5] was 1700 nM, the K half ([6]; OK variant series) was 240 nM and the K half ([6]; preparation used with Ala variants) was 180 nM. The K half ([6]; preparation used with deletion variants, preparations ranged 0.18-0.32 uM) was 320 nM.
With pUC18 vector control fragment the K half [5] was 1000 nM.
